{"source": "paper PMC9723947", "about": "“Ornate, large, extremophilic (OLE) RNA forms a kink turn necessary for OapC protein recognition and RNA function”", "molecules": {"B1": {"name": "OLE83-147 (structured_RNA)", "RNA": "GGAUCGAUGAAGCUCCUUGUGAUGGCUUGAGGCGCCCAGCCUUGGGUCAUUGCUGGGAGAAAAGGUA"}}, "key": {"[1]": {"target": "T1, YbxF/OapC WT (Bacillus halodurans C-125) (UniProt Q9Z9M0)", "T1 sequence": "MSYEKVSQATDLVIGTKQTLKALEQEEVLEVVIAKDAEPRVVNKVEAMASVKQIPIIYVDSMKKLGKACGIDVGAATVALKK", "assay": "filter binding", "details": "Filter binding: 20 mM Tris-HCl pH 7.5, 150 mM NaCl, 10 mM MgCl2, 1 mM TCEP, ~20 C, 15 min, ~10 pM RNA"}, "[2]": {"target": "T1, YbxF/OapC WT (Bacillus halodurans C-125)", "assay": "footprinting (in-line probing)", "details": "Filter binding: 20 mM Tris-HCl pH 7.5, 150 mM NaCl, 10 mM MgCl2, 1 mM TCEP, ~20 C, 15 min, ~10 pM RNA"}, "YbxF/OapC WT [3]": {"target": "T2, YbxF/OapC WT (Bacillus halodurans C-125, UniProt Q9Z9M0 1-82)", "T2 sequence": "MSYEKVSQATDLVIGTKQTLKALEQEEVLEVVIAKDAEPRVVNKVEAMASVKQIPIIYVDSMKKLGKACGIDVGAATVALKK", "assay": "filter binding; Filter binding: 20 mM Tris-HCl pH 7.5, 150 mM NaCl, 10 mM MgCl2, 1 mM TCEP, ~20 C, 15 min, ~10 pM RNA", "details": "protein: recombinant, tags: N-terminal His6 + PreScission (3C) site, label: 5' 32P"}, "YbxF/OapC WT [4]": {"target": "T2, YbxF/OapC WT", "assay": "filter binding; no binding at 1 uM or higher protein; Filter binding: 20 mM Tris-HCl pH 7.5, 150 mM NaCl, 10 mM MgCl2, 1 mM TCEP, ~20 C, 15 min, ~10 pM RNA", "details": "protein: recombinant; tags: N-terminal His6 + PreScission (3C) site; label: 5' 32P; hairpin"}}, "data": [{"molecule": "GGCCUUGAGUGGAGUAGAGGGGAUUAUGGGUUUUGAAGCAAUCCGCUGUCGGCCAACAGCCAUUGCCUCUCUAGUACCAUAUGAAAUCUGCUCUGCAAAAGAG [OLE293-394]", "values": [{"measurement": "binding", "setting": "[1]", "value": "no binding"}]}, {"molecule": "GGCACAUCGAUGAAGCUCCUUGUGAUGGCUUGAGGCGCCCAGCCUUGGGUCAUUGCUGGGAGAAAAGGUAGUAGGGCGAUCCACAAAGGCAUGUGGGCGAUGACCCUCCUACUGUGGAGGCCUUUUUCUCUGCUGCUUAUGUAUGGACAUAGG [OLE78-230]", "values": [{"measurement": "binding", "setting": "[1]", "value": "binds more weakly"}]}, {"molecule": "GGCAUUUAAAGAGGAUUACAGUGUGGACUAAGUGGUAAUCCAGUCUGGCGUUUGGUGACAGCGCCAAGUUCAACAUAAAGGGAAACCGCCAGCGCGGCGACGCACUGGUGUUGAAUUGGGAAAUCCUACUGGACCUAAGCCACAGAGUUUACUCUUUAAAUG [OLE449-608]", "values": [{"measurement": "binding", "setting": "[1]", "value": "no binding"}]}, {"molecule": "GGCACAUCGAUGAAGCUCCUUGUGAUGGCUUGAGGCGCCCAGCCUUGGGUCAUUGCUGGGAGAAAAGGUAGUAGGGCGAUCCACAAAGGCAUGUGGGCGAUGACCCUCCUACUGUGGAGGCCUUUUUCUCUGCUGCUUAUGUAUGGACAUAGGGCAAGAGCAAAGGGUAUGAACCUGCGAAGGCAAGCUAGGGAGCUUGUCAGCAGCGUAGCC [OLE78-290]", "values": [{"measurement": "binding", "setting": "[1]", "value": "binds"}, {"measurement": "binding", "setting": "[2]", "value": "binds"}]}, {"molecule": "B1", "values": [{"measurement": "binding result", "setting": "YbxF/OapC WT [3]", "value": "binds"}]}, {"molecule": "GGAUCGAUGAAGCUCCCGAAAGGGAGAAAAGGUA (structured_RNA)", "note": "[OLE k-turn WT]", "values": [{"measurement": "binding result", "setting": "YbxF/OapC WT [3]; hairpin with k-turn", "value": "binds"}]}, {"molecule": "GGAUAGAUGAAGCUCCCGAAAGGGAGAAAAGGUA (structured_RNA)", "note": "[OLE k-turn C85A]", "values": [{"measurement": "binding result", "setting": "YbxF/OapC WT [4]", "value": "no binding"}]}, {"molecule": "GGACCGAUGAAGCUCCCGAAAGGGAGAAAAGGUA (structured_RNA)", "note": "[OLE k-turn U84C]", "values": [{"measurement": "binding result", "setting": "YbxF/OapC WT [3]; hairpin with k-turn", "value": "binds"}]}]}
